32 molecules from US20240270846A1 (published 2024) can be followed below.

The target of the test is T1, CD3 epsilon homodimer protein (UniProt P07766 23-126).
T1 construct: Immobilized on Sensor chip CM4 by amine coupling; construct not described; also called CD3 (CD3 epsilon)
Put plainly: SPR Biacore T200, CD3 epsilon homodimer on CM4 chip, antibody as analyte.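 Also: Amine-coupled CD3 epsilon homodimer, run at 25 °C in HBS-EP+ buffer, ratio is bound amount of each single-residue H chain variant over that of the parent antibody.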 On the technique in general: SPR reads the build-up and loss of mass on a sensor chip optically.

Positions count from the first letter of the chain named. Names may count otherwise.

T1 sequence (P07766 23-126): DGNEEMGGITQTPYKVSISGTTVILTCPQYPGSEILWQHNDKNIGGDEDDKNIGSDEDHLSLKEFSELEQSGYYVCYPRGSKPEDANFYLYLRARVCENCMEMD

B1: CE115HA000 N54L one-arm antibody (antibody, human IgG1, kappa, L234A L235A, N297A, name in Kabat numbering)
heavy: QVQLVESGGGVVQPGRSLRLSCAASGFTFSNAWMHWVRQAPGKGLEWVAQIKAKSNLYATYYAESVKGRFTISRDDSKNSLYLQMNSLKTEDTAVYYCRYVHYGAYYGVDAWGQGTTVTVSSASTKGPSVFPLAPSSKSTSGGTAALGCLVKDYFPEPVTVSWNSGALTSGVHTFPAVLQSSGLYSLSSVVTVPSSSLGTQTYICNVNHKPSNTKVDKKVEPKSCDKTHTCPPCPAPEAAGGPSVFLFPPKPKDTLMISRTPEVTCVVVDVSHEDPEVKFNWYVDGVEVHNAKTKPREEQYASTYRVVSVLTVLHQDWLNGKEYKCKVSNKALPAPIEKTISKAKGQPREPQVYTLPPSRCELTKNQVSLSCAVKGFYPSDIAVEWESNGQPENNYKTTPPVLDSDGSFFLVSKLTVDKSRWQQGNVFSCSVMHEALHNHYTQKSLSLSPDYKDDDDK
chain: EPKSSDKTHTCPPCPAPELLGGPSVFLFPPKPKDTLMISRTPEVTCVVVDVSHEDPEVKFNWYVDGVEVHNAKTKPREEQYNSTYRVVSVLTVLHQDWLNGKEYKCKVSNKALPAPIEKTISKAKGQPREPQVCTLPPSRDELTKNQVSLWCLVKGFYPSDIAVEWESNGQPENNYKTTPPVLDSDGSFFLYSKLTVDKSRWQQGNVFSCSVMHEALHNRYTQKSLSLSP
light: DIVMTQSPLSLPVTPGEPASISCRSSQSLVHSNRNTYLHWYQQKPGQAPRLLIYKVSNRFSGVPDRFSGSGSGTDFTLKISRVEAEDVGVYYCGQGTQVPYTFGQGTKLEIKRTVAAPSVFIFPPSDEQLKSGTASVVCLLNNFYPREAKVQWKVDNALQSGNSQESVTEQDSKDSTYSLSSTLTLSKADYEKHKVYACEVTHQGLSSPVTKSFNRGEC
notes: one-arm antibody (one Fab)
In the case of B1, the “ratio of amounts bound (Y/X vs CE115HA000)” value (“ratio of amounts bound” for short) turned out to be 0.94.

B2: CE115HA000 V95D one-arm antibody (antibody, human IgG1, kappa, L234A L235A, N297A, name in Kabat numbering)
heavy: B1 heavy with L57N, V101D
chain: B1 chain
light: B1 light
notes: one-arm antibody (one Fab)
As to B2, the “ratio of amounts bound” value amounted to 0.24.

B3: CE115HA000 Y97S one-arm antibody (antibody, human IgG1, kappa, L234A L235A, N297A, name in Kabat numbering)
heavy: B1 heavy with L57N, Y103S
chain: B1 chain
light: B1 light
notes: one-arm antibody (one Fab)
Consider B3, for which the “ratio of amounts bound” value amounted to 0.18.

B4: CE115HA000 V100cE one-arm antibody (antibody, human IgG1, kappa, L234A L235A, N297A, name in Kabat numbering)
heavy: B1 heavy with L57N, V109E
chain: B1 chain
light: B1 light
notes: one-arm antibody (one Fab)
For B4, the “ratio of amounts bound” value was 0.46.

B5: CE115HA000 S74P one-arm antibody (antibody, human IgG1, kappa, L234A L235A, N297A, name in Kabat numbering)
heavy: B1 heavy with L57N, S77P
chain: B1 chain
light: B1 light
notes: one-arm antibody (one Fab)
With B5, the “ratio of amounts bound” value came out at 0.91.

B6: CE115HA000 Y58L one-arm antibody (antibody, human IgG1, kappa, L234A L235A, N297A, name in Kabat numbering)
heavy: B1 heavy with L57N, Y61L
chain: B1 chain
light: B1 light
notes: one-arm antibody (one Fab)
As for B6, the “ratio of amounts bound” value was found to be 0.27.

B7: CE115HA000 Y97A one-arm antibody (antibody, human IgG1, kappa, L234A L235A, N297A, name in Kabat numbering)
heavy: B1 heavy with L57N, Y103A
chain: B1 chain
light: B1 light
notes: one-arm antibody (one Fab)
In the case of B7, the “ratio of amounts bound” value is 0.16.

B8: CE115HA000 N82aD one-arm antibody (antibody, human IgG1, kappa, L234A L235A, N297A, name in Kabat numbering)
heavy: B1 heavy with L57N, N86D
chain: B1 chain
light: B1 light
notes: one-arm antibody (one Fab)
As to B8, the “ratio of amounts bound” value turned out to be 0.73.

B9: CE115HA000 Y97G one-arm antibody (antibody, human IgG1, kappa, L234A L235A, N297A, name in Kabat numbering)
heavy: B1 heavy with L57N, Y103G
chain: B1 chain
light: B1 light
notes: one-arm antibody (one Fab)
B9: the “ratio of amounts bound” value came to 0.18.

B10: CE115HA000 Y59S one-arm antibody (antibody, human IgG1, kappa, L234A L235A, N297A, name in Kabat numbering)
heavy: B1 heavy with L57N, Y62S
chain: B1 chain
light: B1 light
notes: one-arm antibody (one Fab)
In the case of B10, the “ratio of amounts bound” value was 0.94.

B11: CE115HA000 V95G one-arm antibody (antibody, human IgG1, kappa, L234A L235A, N297A, name in Kabat numbering)
heavy: B1 heavy with L57N, V101G
chain: B1 chain
light: B1 light
notes: one-arm antibody (one Fab)
In the case of B11, the “ratio of amounts bound” value worked out at 0.19.

B12: CE115HA000 Y97R one-arm antibody (antibody, human IgG1, kappa, L234A L235A, N297A, name in Kabat numbering)
heavy: B1 heavy with L57N, Y103R
chain: B1 chain
light: B1 light
notes: one-arm antibody (one Fab)
As to B12, the “ratio of amounts bound” value is 0.27.

B13: CE115HA000 S62P one-arm antibody (antibody, human IgG1, kappa, L234A L235A, N297A, name in Kabat numbering)
heavy: B1 heavy with L57N, S65P
chain: B1 chain
light: B1 light
notes: one-arm antibody (one Fab)
For the molecule B13, the “ratio of amounts bound” value turned out to be 1.

B14: CE115HA000 N54Q one-arm antibody (antibody, human IgG1, kappa, L234A L235A, N297A, name in Kabat numbering)
heavy: B1 heavy with L57Q
chain: B1 chain
light: B1 light
notes: one-arm antibody (one Fab)
In the case of B14, the “ratio of amounts bound” value came to 0.84.

B15: CE115HA000 V95A one-arm antibody (antibody, human IgG1, kappa, L234A L235A, N297A, name in Kabat numbering)
heavy: B1 heavy with L57N, V101A
chain: B1 chain
light: B1 light
notes: one-arm antibody (one Fab)
For B15, the “ratio of amounts bound” value was 0.11.

B16: CE115HA000 Y58N one-arm antibody (antibody, human IgG1, kappa, L234A L235A, N297A, name in Kabat numbering)
heavy: B1 heavy with L57N, Y61N
chain: B1 chain
light: B1 light
notes: one-arm antibody (one Fab)
Turning to B16, the “ratio of amounts bound” value came out at 0.33.

B17: CE115HA000 N54S one-arm antibody (antibody, human IgG1, kappa, L234A L235A, N297A, name in Kabat numbering)
heavy: B1 heavy with L57S
chain: B1 chain
light: B1 light
notes: one-arm antibody (one Fab)
For B17, the “ratio of amounts bound” value was determined as 0.84.

B18: CE115HA000 S77T one-arm antibody (antibody, human IgG1, kappa, L234A L235A, N297A, name in Kabat numbering)
heavy: B1 heavy with L57N, S80T
chain: B1 chain
light: B1 light
notes: one-arm antibody (one Fab)
On to B18, for which the “ratio of amounts bound” value was found to be 0.9.

B19: CE115HA000 Y97D one-arm antibody (antibody, human IgG1, kappa, L234A L235A, N297A, name in Kabat numbering)
heavy: B1 heavy with L57N, Y103D
chain: B1 chain
light: B1 light
notes: one-arm antibody (one Fab)
B19: the “ratio of amounts bound” value came to 0.24.

B20: CE115HA000 Y97P one-arm antibody (antibody, human IgG1, kappa, L234A L235A, N297A, name in Kabat numbering)
heavy: B1 heavy with L57N, Y103P
chain: B1 chain
light: B1 light
notes: one-arm antibody (one Fab)
In the case of B20, the “ratio of amounts bound” value turned out to be 0.11.

B21: CE115HA000 Y58S one-arm antibody (antibody, human IgG1, kappa, L234A L235A, N297A, name in Kabat numbering)
heavy: B1 heavy with L57N, Y61S
chain: B1 chain
light: B1 light
notes: one-arm antibody (one Fab)
Take B21: the “ratio of amounts bound” value was 0.18.

B22: CE115HA000 N76S one-arm antibody (antibody, human IgG1, kappa, L234A L235A, N297A, name in Kabat numbering)
heavy: B1 heavy with L57N, N79S
chain: B1 chain
light: B1 light
notes: one-arm antibody (one Fab)
With B22, the “ratio of amounts bound” value was 0.92.

B23: CE115HA000 V100cD one-arm antibody (antibody, human IgG1, kappa, L234A L235A, N297A, name in Kabat numbering)
heavy: B1 heavy with L57N, V109D
chain: B1 chain
light: B1 light
notes: one-arm antibody (one Fab)
In the case of B23, the “ratio of amounts bound” value amounted to 0.44.

B24: CE115HA000 Q105E one-arm antibody (antibody, human IgG1, kappa, L234A L235A, N297A, name in Kabat numbering)
heavy: B1 heavy with L57N, Q114E
chain: B1 chain
light: B1 light
notes: one-arm antibody (one Fab)
Turning to B24, the “ratio of amounts bound” value was 0.94.

B25: CE115HA000 V95K one-arm antibody (antibody, human IgG1, kappa, L234A L235A, N297A, name in Kabat numbering)
heavy: B1 heavy with L57N, V101K
chain: B1 chain
light: B1 light
notes: one-arm antibody (one Fab)
Regarding B25, the “ratio of amounts bound” value was found to be 0.64.

B26: CE115HA000 Y58Q one-arm antibody (antibody, human IgG1, kappa, L234A L235A, N297A, name in Kabat numbering)
heavy: B1 heavy with L57N, Y61Q
chain: B1 chain
light: B1 light
notes: one-arm antibody (one Fab)
In the case of B26, the “ratio of amounts bound” value worked out at 0.19.

B27: CE115HA000 N54Y one-arm antibody (antibody, human IgG1, kappa, L234A L235A, N297A, name in Kabat numbering)
heavy: B1 heavy with L57Y
chain: B1 chain
light: B1 light
notes: one-arm antibody (one Fab)
As for B27, the “ratio of amounts bound” value was 1.09.

B28: CE115HA000 Y55S one-arm antibody (antibody, human IgG1, kappa, L234A L235A, N297A, name in Kabat numbering)
heavy: B1 heavy with L57N, Y58S
chain: B1 chain
light: B1 light
notes: one-arm antibody (one Fab)
Regarding B28, the “ratio of amounts bound” value came out at 0.26.

B29: CE115HA000 T57N one-arm antibody (antibody, human IgG1, kappa, L234A L235A, N297A, name in Kabat numbering)
heavy: B1 heavy with L57N, T60N
chain: B1 chain
light: B1 light
notes: one-arm antibody (one Fab)
Take B29: the “ratio of amounts bound” value was 0.97.

B30: CE115HA000 V100cP one-arm antibody (antibody, human IgG1, kappa, L234A L235A, N297A, name in Kabat numbering)
heavy: B1 heavy with L57N, V109P
chain: B1 chain
light: B1 light
notes: one-arm antibody (one Fab)
Regarding B30, the “ratio of amounts bound” value worked out at 0.2.

B31: CE115HA000 V95E one-arm antibody (antibody, human IgG1, kappa, L234A L235A, N297A, name in Kabat numbering)
heavy: B1 heavy with L57N, V101E
chain: B1 chain
light: B1 light
notes: one-arm antibody (one Fab)
With B31, the “ratio of amounts bound” value turned out to be 0.24.

B32: CE115HA000 V95S one-arm antibody (antibody, human IgG1, kappa, L234A L235A, N297A, name in Kabat numbering)
heavy: B1 heavy with L57N, V101S
chain: B1 chain
light: B1 light
notes: one-arm antibody (one Fab)
For B32, the “ratio of amounts bound” value was determined as 0.22.
